The values that follow come from patent publication US6074851A, “Catalytic macro molecules having cdc25B like activity” (Pharmacia & UpJohn Company, priority 1997, dated 2000).

The target of series [1] is GST-cdc25B (residues 355-566) fusion protein (Homo sapiens, UniProt P30305). The following applies: PNPP as substrate, 37° C.; cited from earlier work.
Substrate in series [2]: O=[N+]([O-])c1ccc(OP(=O)(O)O)cc1
Put plainly: purified protein, by the assay type. The following applies: other: PNPP as substrate, 25° C., pH 8.0.

What is called Km is the concentration of substrate that gives half-maximal velocity. Take `O=[N+]([O-])c1ccc(OP(=O)(O)O)cc1` [PNPP, p-nitrophenyl phosphate]: the Km in series [1] was 16.6 mM.

B1: human cdc25B (364-529) VHR-like catalytic domain, GST-free, GIQ-cdc25B (364-529), SEQ ID NO: 24 (Homo sapiens) (protein)
chain: HDEIENLLDSDHRELIGDYSKAFLLQTVDGKHQDLKYISPETMVALLTGKFSNIVDKFVIVDCRYPYEYEGGHIKTAVNLPLERDAESFLLKSPIAPCSLDKRVILIFHCEFSSERGPRMCRFIRERDRAVNDYPSLYYPEMYILKGGYKEFFPQHPNFCEPQDYR
What is called Vmax is the rate approached at saturating substrate. As to B1, in series [2], the Km was 28 mM and the Vmax was found to be 250 nmol/min/mg.

B2: human cdc25B (356-556) minimal catalytic domain, Val356-Arg556, GST-free, Form II, SEQ ID NO: 9 (Homo sapiens) (protein)
chain: VLRSKSLCHDEIENLLDSDHRELIGDYSKAFLLQTVDGKHQDLKYISPETMVALLTGKFSNIVDKFVIVDCRYPYEYEGGHIKTAVNLPLERDAESFLLKSPIAPCSLDKRVILIFHCEFSSERGPRMCRFIRERDRAVNDYPSLYYPEMYILKGGYKEFFPQHPNFCEPQDYRPMNHEAFKDELKTFRLKTRSWAGERSR
Turning to B2, the Km in series [2] turned out to be 2.0 mM.

B3: human cdc25B Mutein3, cdc25B (356-566) with Arg556Lys/Arg557Lys, SEQ ID NO: 23 (Homo sapiens; R570K/R571K) (protein)
chain: VLRSKSLCHDEIENLLDSDHRELIGDYSKAFLLQTVDGKHQDLKYISPETMVALLTGKFSNIVDKFVIVDCRYPYEYEGGHIKTAVNLPLERDAESFLLKSPIAPCSLDKRVILIFHCEFSSERGPRMCRFIRERDRAVNDYPSLYYPEMYILKGGYKEFFPQHPNFCEPQDYRPMNHEAFKDELKTFRLKTRSWAGERSKKELCSRLQDQ
On to B3, for which, in series [2], the Km is on record as 2.0 mM.

B4: near full length GST-cdc25B (31-566) fusion protein (Homo sapiens) (protein)
chain: GLLLGSHGLLGSPVRAAASSPVTTLTQTMHDLAGLGSRSRLTHLSLSRRASESSLSSESSESSDAGLCMDSPSPMDPHMAEQTFEQAIQAASRIIRNEQFAIRRFQSMPVRLLGHSPVLRNITNSQAPDGRRKSEAGSGAASSSGEDKENDGFVFKMPWKPTHPSSTHALAEWASRREAFAQRPSSAPDLMCLSPDRKMEVEELSPLALGRFSLTPAEGDTEEDDGFVDILESDLKDDDAVPPGMESLISAPLVKTLEKEEEKDLVMYSKCQRLFRSPSMPCSVIRPILKRLERPQDRDTPVQNKRRRSVTPPEEQQEAEEPKARVLRSKSLCHDEIENLLDSDHRELIGDYSKAFLLQTVDGKHQDLKYISPETMVALLTGKFSNIVDKFVIVDCRYPYEYEGGHIKTAVNLPLERDAESFLLKSPIAPCSLDKRVILIFHCEFSSERGPRMCRFIRERDRAVNDYPSLYYPEMYILKGGYKEFFPQHPNFCEPQDYRPMNHEAFKDELKTFRLKTRSWAGERSRRELCSRLQDQ
With B4, the Km in series [2] is reported as 12.0 mM.
